The chains are these.
T1: TAP-tagged Kap120 (S. cerevisiae, UniProt Q02932 1-1032)
T1 construct: karyopherin Kap120 of S. cerevisiae, TAP-tagged, expressed in yeast; also called Kap120-TAP; source: yeast, in extract, captured on IgG-sepharose
T1 sequence (looked up): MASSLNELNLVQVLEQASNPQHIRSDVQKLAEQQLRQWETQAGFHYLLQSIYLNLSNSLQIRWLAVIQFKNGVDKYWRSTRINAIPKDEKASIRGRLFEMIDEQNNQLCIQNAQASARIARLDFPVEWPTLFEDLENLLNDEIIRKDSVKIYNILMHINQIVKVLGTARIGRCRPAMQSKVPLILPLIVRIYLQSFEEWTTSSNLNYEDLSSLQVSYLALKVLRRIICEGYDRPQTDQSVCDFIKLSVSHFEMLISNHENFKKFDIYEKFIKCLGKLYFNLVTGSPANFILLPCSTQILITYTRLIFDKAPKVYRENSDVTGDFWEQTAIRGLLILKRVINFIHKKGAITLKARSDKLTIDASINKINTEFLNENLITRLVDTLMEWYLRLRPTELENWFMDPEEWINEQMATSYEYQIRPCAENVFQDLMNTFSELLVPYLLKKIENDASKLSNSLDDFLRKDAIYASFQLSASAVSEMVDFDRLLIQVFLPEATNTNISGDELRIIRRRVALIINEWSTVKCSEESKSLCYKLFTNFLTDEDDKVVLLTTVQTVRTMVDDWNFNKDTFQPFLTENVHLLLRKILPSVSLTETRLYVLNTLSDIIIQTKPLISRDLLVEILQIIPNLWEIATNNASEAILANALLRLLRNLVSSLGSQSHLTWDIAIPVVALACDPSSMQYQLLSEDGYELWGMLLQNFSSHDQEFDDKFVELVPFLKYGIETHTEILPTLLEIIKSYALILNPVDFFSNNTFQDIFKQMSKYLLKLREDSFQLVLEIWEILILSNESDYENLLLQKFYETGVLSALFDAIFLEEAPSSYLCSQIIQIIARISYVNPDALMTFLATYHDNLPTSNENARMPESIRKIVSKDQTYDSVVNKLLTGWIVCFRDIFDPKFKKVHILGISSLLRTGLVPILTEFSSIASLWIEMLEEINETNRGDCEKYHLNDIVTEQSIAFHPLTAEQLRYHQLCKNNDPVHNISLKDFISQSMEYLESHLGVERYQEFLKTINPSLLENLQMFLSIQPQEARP

B1: Dhh1 (natural protein, S. cerevisiae (endogenous in yeast), UniProt P39517 1-506, looked up)
chain: MGSINNNFNTNNNSNTDLDRDWKTALNIPKKDTRPQTDDVLNTKGNTFEDFYLKRELLMGIFEAGFEKPSPIQEEAIPVAITGRDILARAKNGTGKTAAFVIPTLEKVKPKLNKIQALIMVPTRELALQTSQVVRTLGKHCGISCMVTTGGTNLRDDILRLNETVHILVGTPGRVLDLASRKVADLSDCSLFIMDEADKMLSRDFKTIIEQILSFLPPTHQSLLFSATFPLTVKEFMVKHLHKPYEINLMEELTLKGITQYYAFVEERQKLHCLNTLFSKLQINQAIIFCNSTNRVELLAKKITDLGYSCYYSHARMKQQERNKVFHEFRQGKVRTLVCSDLLTRGIDIQAVNVVINFDFPKTAETYLHRIGRSGRFGHLGLAINLINWNDRFNLYKIEQELGTEIAAIPATIDKSLYVAENDETVPVPFPIEQQSYHQQAIPQQQLPSQQQFAIPPQQHHPQFMVPPSHQQQQAYPPPQMPSQQGYPPQQEHFMAMPPGQSQPQY
notes: mRNA decay factor Dhh1 of S. cerevisiae, detected with anti-Dhh1 antibodies; source: endogenous, yeast extract
B2: GFP-tagged Tail of Xrn1 (domain or fragment, S. cerevisiae, UniProt P22147 351-521, looked up)
chain: EKDDIDVEWFNKQLENISLEGERKRQRVGKKLLVKQQKKLIGSIKPWLMEQLQEKLSPDLPDEEIPTLELPKDLDMKDHLEFLKEFAFDLGLFITHSKSKGSYSLKMDLDSINPDETEEEFQNRVNSIRKTIKKYQNAIIVEDKEELETEKTIYNERFERWKHEYYHDKLK
notes: holds NLS1; also called Tail-GFP; linker domain; source: yeast, expressed under ADH1 promoter and terminator; pulled down with GFP-Trap resin and washed
B3: Pat1 (natural protein, S. cerevisiae (endogenous in yeast), UniProt P25644 1-796, looked up)
chain: MSFFGLENSGNARDGPLDFEESYKGYGEHELEENDYLNDETFGDNVQVGTDFDFGNPHSSGSSGNAIGGNGVGATARSYVAATAEGISGPRTDGTAAAGPLDLKPMESLWSTAPPPAMAPSPQSTMAPAPAPQQMAPLQPILSMQDLERQQRQMQQQFMNFHAMGHPQGLPQGPPQQQFPMQPASGQPGPSQFAPPPPPPGVNVNMNQMPMGPVQVPVQASPSPIGMSNTPSPGPVVGATKMPLQSGRRSKRDLSPEEQRRLQIRHAKVEKILKYSGLMTPRDKDFITRYQLSQIVTEDPYNEDFYFQVYKIIQRGGITSESNKGLIARAYLEHSGHRLGGRYKRTDIALQRMQSQVEKAVTVAKERPSKLKDQQAAAGNSSQDNKQANTVLGKISSTLNSKNPRRQLQIPRQQPSDPDALKDVTDSLTNVDLASSGSSSTGSSAAAVASKQRRRSSYAFNNGNGATNLNKSGGKKFILELIETVYEEILDLEANLRNGQQTDSTAMWEALHIDDSSYDVNPFISMLSFDKGIKIMPRIFNFLDKQQKLKILQKIFNELSHLQIIILSSYKTTPKPTLTQLKKVDLFQMIILKIIVSFLSNNSNFIEIMGLLLQLIRNNNVSFLTTSKIGLNLITILISRAALIKQDSSRSNILSSPEISTWNEIYDKLFTSLESKIQLIFPPREYNDHIMRLQNDKFMDEAYIWQFLASLALSGKLNHQRIIIDEVRDEIFATINEAETLQKKEKELSVLPQRSQELDTELKSIIYNKEKLYQDLNLFLNVMGLVYRDGEISELK
notes: mRNA decay factor Pat1 of S. cerevisiae, detected with anti-Pat1 antibodies; source: endogenous, yeast extract
B4: recombinant 6xHis-tagged Kap120 (natural protein, S. cerevisiae, UniProt Q02932 1-1032, looked up)
chain: T1 sequence (looked up)
notes: karyopherin (importin) Kap120 of S. cerevisiae; also called Kap120-6xHis; Kap120-His; source: E. coli, IPTG induced, purified (Ni-NTA)

Data set [1] deals with B4. As to the kind of experiment: pull-down; purified Kap120-6xHis mixed with purified Xrn1-FLAG (WT or mutant), 1 h at 4 °C in a rotator; complex captured on Ni-NTA, Western blotting; Xrn1-FLAG intensity normalized to Kap120.
For the next data set, the target named is T1, TAP-tagged Kap120. The experiment in a line: co-IP; TAP-tagged Kap120 affinity purified with IgG-sepharose from extract of optimally proliferating yeast (WT or Xrn1^ΔNLS1/2 cells); co-IPed proteins by Western blotting; signals normalized to Kap120. The settings on record: partners not purified.
A further data set deals with Xrn1 WT (Saccharomyces cerevisiae, UniProt P22147 1-1528). The experiment in a line: pull-down on FLAG beads, competition by Kap120; Kap120 prevents RNA binding dose-dependently; EMSA: 50 mM Tris-HCl pH 7.4, 150 mM NaCl, 2 mM DTT, 1 mM EDTA, 30 min at room temperature, 6% native PAGE in 0.5x TBE; pull-downs with RNA: 2 mM EDTA, 1 h at 4. Particulars: protein: native; tags: FLAG; label: Cy3.
Sequence of Xrn1 WT (P22147 whole entry): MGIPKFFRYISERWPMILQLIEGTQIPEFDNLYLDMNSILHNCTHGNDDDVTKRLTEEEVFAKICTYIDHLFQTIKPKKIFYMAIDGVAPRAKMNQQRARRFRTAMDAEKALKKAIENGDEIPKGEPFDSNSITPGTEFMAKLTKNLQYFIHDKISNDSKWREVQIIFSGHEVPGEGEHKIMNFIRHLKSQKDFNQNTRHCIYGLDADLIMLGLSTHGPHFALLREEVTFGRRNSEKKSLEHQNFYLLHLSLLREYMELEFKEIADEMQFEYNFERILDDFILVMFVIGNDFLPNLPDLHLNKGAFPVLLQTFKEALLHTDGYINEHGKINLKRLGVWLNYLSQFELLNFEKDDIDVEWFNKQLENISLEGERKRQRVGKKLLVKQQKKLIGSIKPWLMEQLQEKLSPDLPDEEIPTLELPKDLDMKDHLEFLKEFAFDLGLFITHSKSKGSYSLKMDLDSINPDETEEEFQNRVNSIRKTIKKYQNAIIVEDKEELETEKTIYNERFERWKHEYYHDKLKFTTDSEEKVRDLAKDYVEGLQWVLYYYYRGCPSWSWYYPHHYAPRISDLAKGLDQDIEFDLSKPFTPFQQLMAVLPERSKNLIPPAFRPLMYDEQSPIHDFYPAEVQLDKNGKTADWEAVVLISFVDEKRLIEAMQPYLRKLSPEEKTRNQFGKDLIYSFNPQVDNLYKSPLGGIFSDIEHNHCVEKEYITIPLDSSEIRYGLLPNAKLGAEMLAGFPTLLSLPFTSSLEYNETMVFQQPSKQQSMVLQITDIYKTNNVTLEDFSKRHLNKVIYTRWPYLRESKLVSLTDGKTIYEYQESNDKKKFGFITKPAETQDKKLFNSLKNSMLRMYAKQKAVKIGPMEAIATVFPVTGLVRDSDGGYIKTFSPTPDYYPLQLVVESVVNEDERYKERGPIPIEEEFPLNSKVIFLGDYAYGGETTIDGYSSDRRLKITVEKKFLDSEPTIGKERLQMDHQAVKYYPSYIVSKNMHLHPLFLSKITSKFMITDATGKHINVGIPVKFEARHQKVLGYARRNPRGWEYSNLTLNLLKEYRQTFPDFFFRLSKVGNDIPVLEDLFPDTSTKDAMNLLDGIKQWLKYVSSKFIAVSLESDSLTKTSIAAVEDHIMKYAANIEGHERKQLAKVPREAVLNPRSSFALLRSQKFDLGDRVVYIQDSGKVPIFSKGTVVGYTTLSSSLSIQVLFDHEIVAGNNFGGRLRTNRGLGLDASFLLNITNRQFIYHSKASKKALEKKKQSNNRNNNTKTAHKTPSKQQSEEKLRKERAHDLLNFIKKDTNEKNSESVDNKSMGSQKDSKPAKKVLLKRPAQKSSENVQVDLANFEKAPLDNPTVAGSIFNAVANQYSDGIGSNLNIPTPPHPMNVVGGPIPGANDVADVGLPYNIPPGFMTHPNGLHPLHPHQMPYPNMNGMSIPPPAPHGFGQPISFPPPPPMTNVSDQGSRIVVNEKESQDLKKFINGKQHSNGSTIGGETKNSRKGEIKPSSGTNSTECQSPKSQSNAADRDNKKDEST

The target in data set [2] is B4. As to the kind of experiment: pull-down; GFP-tagged Tail held on GFP-Trap resin in a small column, washed 3 times; purified Kap120-His added, 1 h at 4 °C; eluted with 2X LSB at 95 °C. Particulars: both partners purified.
Data set [3] has as its target T2, FLAG-tagged Xrn1 (wild type) (S. cerevisiae, UniProt P22147 1-1528).
T2 construct: 5' to 3' exonuclease Xrn1 (alias Kem1) of S. cerevisiae, called full-length Xrn1 for the FLAG-tagged purified protein; also called Xrn1-FLAG; Xrn1^WT; source: genomically FLAG-tagged strain, in lysate, for the IP with mass spectrometry
As to the kind of experiment: pull-down; purified Kap120-6xHis mixed with purified Xrn1-FLAG (WT or mutant), 1 h at 4 °C in a rotator; complex captured on Ni-NTA, Western blotting; Xrn1-FLAG intensity normalized to Kap120. Particulars: both partners purified.

The source of these data is article PMC9684461, “RNA-controlled nucleocytoplasmic shuttling of mRNA decay factors regulates mRNA synthesis and a novel mRNA decay pathway” (Nature Communications, 2021).

T2 sequence (P22147 whole entry): as above

As for “FLAG-tagged Xrn1^ΔNLS1/2 (from UniProt P22147 1-1528) (enzyme)”, in data set [1], the fold weaker than Xrn1^WT-Kap120 was determined as 4.5 fold. As for B1, the “fold reduction of the co-IP in Xrn1^ΔNLS1/2 cells against WT cells” value in the data set with TAP-tagged Kap120 is about 5 fold. Turning to AUGUACAGUCCGACGAACACGGAGUCGACCCGCAACGCGA (ssRNA) [Cy3-labeled 40 b RNA], the binding result with Xrn1 WT is “binds”. Turning to B2, in data set [2], the binding result is “binds”. In the case of B3, the “fold reduction of the co-IP in Xrn1^ΔNLS1/2 cells against WT cells” value with TAP-tagged Kap120 is about 5 fold. Take B4: the binding result in data set [3] is recorded as “binds”.
